Consider three substances from article PMC6101532.

The target of test [1] is MBP–RsbN α3 (maltose binding protein joined by a linker to RsbN α3) (Streptomyces venezuelae). Nature of the test: SEC. Background: SEC sorts molecules by how far they enter the pores of the column.
The target of test [2] is his-tagged RsbN(1–91) (Streptomyces venezuelae). As to the kind of experiment: SEC.

Usually stoichiometry N stands for the number of molecules, sites or subunits per partner or assembly. Take “BldN (σ^BldN), full length, wild type (natural protein)”: in test [1], the stoichiometry N came out at 1.
“BldN domain 2 (σ2), non-tagged (domain or fragment)”: in test [2], the stoichiometry N came to 1.
On the same count and under the same terms, to “BldN domain 4 (σ4), non-tagged (domain or fragment)” belongs 1.
